Here are results for 3 molecules from publication PMC8469728, “Molecular and Enzymatic Characterization of Flavonoid 3′-Hydroxylase of Malus × domestica” (Plants, 2021).

The target of one data set is T1, CsCH3H (Cosmos sulphureus, UniProt D8KZE8).
T1 construct: recombinant, expressed in Saccharomyces cerevisiae INVSc1, microsomal preparation
T1 sequence (D8KZE8 1-512): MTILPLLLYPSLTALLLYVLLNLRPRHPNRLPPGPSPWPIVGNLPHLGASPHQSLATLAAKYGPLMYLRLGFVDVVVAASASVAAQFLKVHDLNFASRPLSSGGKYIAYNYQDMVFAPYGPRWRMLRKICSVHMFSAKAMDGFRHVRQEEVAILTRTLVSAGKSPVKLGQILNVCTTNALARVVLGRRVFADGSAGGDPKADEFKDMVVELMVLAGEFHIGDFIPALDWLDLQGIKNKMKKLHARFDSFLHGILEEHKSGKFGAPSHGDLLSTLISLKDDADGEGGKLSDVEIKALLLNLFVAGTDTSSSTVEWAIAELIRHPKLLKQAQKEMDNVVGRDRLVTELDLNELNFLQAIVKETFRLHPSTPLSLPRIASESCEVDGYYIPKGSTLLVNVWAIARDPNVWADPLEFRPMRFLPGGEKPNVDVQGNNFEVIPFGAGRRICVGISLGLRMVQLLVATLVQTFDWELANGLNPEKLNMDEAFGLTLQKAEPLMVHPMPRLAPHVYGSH
As to the kind of experiment: LC-MS/DAD detection of 3-hydroxyphloretin formed by yeast microsomes. Particulars: 10 µM substrate, 1.55 mM NADPH, 100 mM HEPES pH 7.5, 30 °C. In kind it is biochemical.

Substrate in data set [1]: O=C1C[C@@H](c2ccc(O)cc2)Oc2cc(O)cc(O)c21
Description: cells, lysate or membranes. In kind it is biochemical, Malus domestica. The following applies: 0.5 mM NADPH, Tris/HCl pH 6.5–6.75, 25 °C, labelled compound, pH 6.0.

Substrate in data set [2]: O=c1c(O)c(-c2ccc(O)cc2)oc2cc(O)cc(O)c12
As to the kind of experiment: cells, lysate or membranes. In kind it is biochemical, Malus domestica. The following applies: 0.5 mM NADPH, Tris/HCl pH 6.5–6.75, 25 °C, labelled compound, pH 6.0.

Substrate in data set [3]: O=C1c2c(O)cc(O)cc2O[C@H](c2ccc(O)cc2)[C@H]1O
As to the kind of experiment: cells, lysate or membranes. Particulars: 0.5 mM NADPH, Tris/HCl pH 6.5–6.75, 25 °C, labelled compound, pH 6.0. In kind it is biochemical, Malus domestica.

Take `O=C(CCc1ccc(O)cc1)c1c(O)cc(O)cc1O` [phloretin]: the “LC-MS/DAD detection of 3-hydroxyphloretin formed by yeast microsomes” value on CsCH3H is “produced sufficient amounts of 3-hydroxyphloretin to be detected by the DAD”.

B1: MdF3′HII (Malus domestica) (protein)
chain: MFVLIFFTVVLAFFLYRLFAPGGSRHALPLPPGPKPWPVVGNLPHLGPVPHHSLAALARQYGPLMHLRLGFADVVVAASASVASQFLKTHDANFSSRPPNSGAKHLAYNYQDLVFAPYGPRWRMLRKISSVHLFSGKALDDLKHVRQEEVGVLAHGLASAGSKPVSLGQLLNVCTVNALGRVMVGRRLFGDGGGREDQKADEFKSMVVEMMVLAGVFNIGDFIPALEWLDLQGVAGKMKKLHKRFDAFLTAIVEDHKRSGEGKHVDMLTTLLSLTDDADGEGAKLTDTEIKALLLNMFTAGTDTSSSTVEWAIAELLRHPKILAQLQQELDQVVGRDRLVTESDLPNLTYLQAVIKETFRLHPSTPLSLPRMASESCEINGFHIPKGATLLVNVWAISRDPAQWSEPLEFRPERFLPGGEKPNVDVKGNDFEVIPFGAGRRICAGMTLGLRMVSLMTATLVHGFDWTLADGLTPEKLNMDEAYGLTLQRAAPLMVHPRNRLAPHAYNASSP
notes: full-length ORF, 511 residues, C-terminal Twin-Strep-tag, expressed in Saccharomyces cerevisiae INVSc1, microsomal preparation; differs from FJ919633 at residues 73 and 457
Broadly, the Km is the concentration of substrate that gives half-maximal velocity. The term Vmax denotes the rate approached at saturating substrate. With B1, the Km is 0.31 ± 0.10 µM in data set [1], 0.20 ± 0.02 µM in data set [2] and 0.31 ± 0.03 µM in data set [3]. The figures for the Vmax in data set [1], in data set [2] and in data set [3] were 30 µM/min, 19.8 µM/min and 19.8 µM/min, respectively.

B2: MdF3′HI (Malus domestica; I211M) (protein)
chain: MFVLIVFTVVFAFFLYRIFAPGGSRHSLPLPPGPKPWPVVGNLPHLGPVPHHSLAALARQYGPLMHLRLGFVDVVVAASASVASQFLKTHDANFSSRPPNSGAKHLAYNYQDLVFAPYGPRWRLLRKISSVHLFSGKALDDLKHVRQEEVGVLAHGLASAGSKPVNLAQLLNVCTVNALGRVMVGRRLFGNGMGGEDPKADEFKSMVVEMMVLAGVFNIGDFISSLEWLDLQGVAGKMKKLHKRFDAFLTAIVEEHKRSRGGKHVDMLTTLLSLKEDADGEGAKLTDTEIKALLLNMFTAGTDTSSSTVEWAIAELLRHPKILAQLQQELDQVVGRDRLVTESDLPNLTYLQAVIKETFRLHPSTPLSLPRMATESCEINGFHIPKGATLLVNVWAVSRDPDQWSEPLEFRPERFMSGGEKPNVDIRGNDFEVIPFGAGRRICAGMSLGLRMVSLMTATLVHGFDWTLADGLTPEKLNMDEAYGLTLQRAAPLMVHPRNRLAPHAYNASSS
notes: full-length ORF, 511 residues, C-terminal Twin-Strep-tag, expressed in Saccharomyces cerevisiae INVSc1, microsomal preparation; clone MH468788 has I211 and S224, differing from FJ919631 at both residues (M211 and P224 there)
In the case of B2, the Km in data set [1] stood at 2.11 ± 1.5 µM; in data set [2], 0.21 ± 0.07 µM; in data set [3], 0.42 ± 0.06 µM. The values for the Vmax in data set [1], in data set [2] and in data set [3] were 43.8 µM/min, 21 µM/min and 28.2 µM/min, respectively.
